{
  "source": "patent US20040253623",
  "about": "“Nucleic acid binding proteins” (Gendaq Limited, published 2004)",
  "binders": {"B1": {"name": "EJ mutant (G12V) H-ras DNA, codons 8-16 (dsDNA)", "DNA 1": "GTGGTGGGCGCCGTCGGTGTGGGCAAG", "DNA 2": "CTTGCCCACACCGACGGCGCCCACCAC"}},
  "key": {"[1]": {"biological_target": "anti-ras lead zinc finger peptide (3 fingers) (Artificial Sequence)", "sequence (chain, as listed by the source)": "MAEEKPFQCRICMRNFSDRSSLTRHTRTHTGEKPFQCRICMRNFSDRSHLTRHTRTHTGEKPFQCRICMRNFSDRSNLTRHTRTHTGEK", "experiment": "apparent Kd; phage binding", "details": "protein: virion; label: biotin"}, "[2]": {"biological_target": "optimised anti-ras zinc finger peptide (Asn at helix +3 of finger 1) (Artificial Sequence, S21N (finger 1 helix position +3 Ser to Asn; numbering of SEQ 14))", "sequence (chain, as listed by the source with the stated changes)": "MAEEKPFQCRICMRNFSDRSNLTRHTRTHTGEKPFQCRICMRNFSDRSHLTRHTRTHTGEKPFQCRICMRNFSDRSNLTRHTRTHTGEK", "experiment": "apparent Kd; phage binding", "details": "protein: virion; label: biotin"}},
  "data": [
    {"binder": "B1", "values": [
      {"measurement": "Kd", "setting": "[1]", "value": 17, "unit": "nM"},
      {"measurement": "Kd", "setting": "[2]", "value": 3, "unit": "nM"}
    ]}
  ]
}
